Where two headings read alike, the source gives them in different places.
T1: human LAG-3 (expressed on 293FF cells) (human, UniProt P18627 23-525)
T1 construct: whole, on cells; also called CD223
T1 sequence (looked up): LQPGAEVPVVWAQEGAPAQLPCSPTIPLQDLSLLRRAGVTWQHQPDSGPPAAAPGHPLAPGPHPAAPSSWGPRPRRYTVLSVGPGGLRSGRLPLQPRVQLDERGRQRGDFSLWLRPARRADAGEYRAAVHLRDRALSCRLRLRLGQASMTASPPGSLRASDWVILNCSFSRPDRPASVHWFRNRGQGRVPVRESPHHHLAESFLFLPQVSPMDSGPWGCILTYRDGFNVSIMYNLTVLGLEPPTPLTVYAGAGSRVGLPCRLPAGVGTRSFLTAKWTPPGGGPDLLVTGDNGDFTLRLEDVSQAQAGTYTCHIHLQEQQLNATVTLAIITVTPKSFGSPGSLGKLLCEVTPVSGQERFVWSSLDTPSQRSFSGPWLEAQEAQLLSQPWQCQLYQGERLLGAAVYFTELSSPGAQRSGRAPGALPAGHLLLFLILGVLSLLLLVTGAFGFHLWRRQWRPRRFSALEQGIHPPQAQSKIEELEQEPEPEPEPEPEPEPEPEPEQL

B1: PD-1xLAG-3 bispecific antibody SEQ ID NO: 1 × SEQ ID NO: 14 (bispecific antibody)
heavy (part 1 of 2) 1: not shown
heavy (part 2 of 2) 1: not shown
heavy (part 1 of 2) 2: EVQLVQSGSELKKPGASVKVSCKASGYTFTTNALNWVRQAPGQGLEWMGWINTHTGNPTYAQGFIGRFVFSLDTSVSTAYLQIRSLKAEDTAVYYCAREPNWGVYFDYWGQGTLVTVSSASTKGPSVFPLAPSSKSTSGGTAALGCLVKDYFPEPVTVSWNSGALTSGVHTFPAVLQSSGLYSLSSVVTVPSSSLGTQTYICNVNHKPSNTKVDKRV
heavy (part 2 of 2) 2: not shown
light: not shown
notes: IgG1; common light chain; also called PB4; not shown: hinge (IgG1)
B2: PD-1xLAG-3 bispecific antibody SEQ ID NO: 6 × SEQ ID NO: 14 (bispecific antibody)
heavy (part 1 of 2) 1: not shown
heavy (part 2 of 2) 1: not shown
heavy (part 1 of 2) 2: B1 heavy (part 1 of 2) 2
heavy (part 2 of 2) 2: not shown
light: not shown
notes: IgG1; common light chain; also called PB10; PD-1xLAG-3 bispecific antibody 2; not shown: hinge (IgG1)
B3: PD-1xLAG-3 bispecific antibody SEQ ID NO: 1 × SEQ ID NO: 11 (bispecific antibody)
heavy (part 1 of 2) 1: not shown
heavy (part 2 of 2) 1: not shown
heavy (part 1 of 2) 2: QVQLQESGPGLVRPSETLSLTCTVSGGSISSYSWSWIRQPPGKGLEWIGYIDYSGSTNYNPSLKSRVTISVDTSKTQFSLKLSSVSAADTAVYYCAKDLLYKWNYVEGFDIWGQGTTVTVSSASTKGPSVFPLAPSSKSTSGGTAALGCLVKDYFPEPVTVSWNSGALTSGVHTFPAVLQSSGLYSLSSVVTVPSSSLGTQTYICNVNHKPSNTKVDKRV
heavy (part 2 of 2) 2: not shown
light: not shown
notes: IgG1; common light chain; also called PB1; not shown: hinge (IgG1)
B4: PD-1xLAG-3 bispecific antibody SEQ ID NO: 5 × SEQ ID NO: 11 (bispecific antibody)
heavy (part 1 of 2) 1: not shown
heavy (part 2 of 2) 1: not shown
heavy (part 1 of 2) 2: B3 heavy (part 1 of 2) 2
heavy (part 2 of 2) 2: not shown
light: not shown
notes: IgG1; common light chain; also called PB13; not shown: hinge (IgG1)

What was measured:
[1] = target: T2, human PD-1 (expressed on cells) (human, UniProt Q15116 25-288); experiment: cell-based or functional assay
T2 sequence (Q15116 25-288): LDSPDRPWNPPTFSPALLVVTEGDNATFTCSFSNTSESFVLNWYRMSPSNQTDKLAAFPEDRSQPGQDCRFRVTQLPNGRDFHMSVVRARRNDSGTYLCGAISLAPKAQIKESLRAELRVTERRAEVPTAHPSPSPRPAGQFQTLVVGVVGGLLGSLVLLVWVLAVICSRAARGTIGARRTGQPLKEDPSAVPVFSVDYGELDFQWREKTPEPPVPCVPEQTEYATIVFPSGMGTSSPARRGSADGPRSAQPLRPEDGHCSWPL

[2] = target: T2, human PD-1 (expressed on cells); experiment: cell-based or functional assay; remark: listed apart in the source
[3] = target: T1, human LAG-3 (expressed on 293FF cells); experiment: FACS on 293FF cells stably transfected with human LAG-3
Experimental: (§1) The binding of bispecific antibodies was analyzed by FACS using cell lines stably transfected with human LAG-3 or rhesus LAG-3, or transiently transfected with human PD-1 or cynomolgus PD-1. […] IgG specific binding was measured by FACS using a 8-step, 5-fold dilution starting at 50 ug/ml. A goat-anti-human PE was used as secondary detection antibody. Cells w/o staining or only secondary detection antibody were included as negative assay controls.

[4] = target: cynomolgus PD-1 (expressed on 293FF cells) (cynomolgus, UniProt B0LAJ3 25-288); experiment: FACS on 293FF cells transiently transfected with cynomolgus PD-1
cynomolgus PD-1 (expressed on 293FF cells), sequence (B0LAJ3 entry or part of it limits assumed): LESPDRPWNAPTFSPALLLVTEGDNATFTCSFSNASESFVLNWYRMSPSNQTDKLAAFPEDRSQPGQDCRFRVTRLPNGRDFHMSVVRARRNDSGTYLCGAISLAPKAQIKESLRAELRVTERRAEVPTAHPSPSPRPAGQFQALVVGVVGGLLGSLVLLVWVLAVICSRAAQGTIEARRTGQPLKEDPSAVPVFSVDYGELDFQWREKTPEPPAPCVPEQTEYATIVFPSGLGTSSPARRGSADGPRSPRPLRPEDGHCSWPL
Experimental: as §1

[5] = target: T2, human PD-1 (expressed on cells); experiment: cell-based or functional assay; remark: listed apart in the source

| Binder | AUC relative to positive control, PD-1/LAG-3 reporter assay [1] [%] | EC50 (nM) PD-1/LAG-3 reporter assay [1] [nM] | EC50 (read off the curve); PD-1/PD-L1 reporter assay, luciferase fold induction [2] [µg/mL] | binding result [3] | binding result [4] | EC50 (read off the curve); PD-1/PD-L1 reporter assay, luciferase fold induction [5] [µg/mL] |
| --- | --- | --- | --- | --- | --- | --- |
| B1 | 271 | 9.96 | ~1 | binds | binds | – |
| B2 | 246 | 18 | ~1 | binds | binds | – |
| B3 | 215 | 19.1 | – | binds | binds | ~0.5 |
| B4 | 218 | 10.1 | – | binds | binds | ~0.7 |
